The source of these data is patent CN116724055A (CANTARGIA S R L, dated 2023).

One test deals with T1, 小鼠IL1RAP (小家鼠 (Mus musculus), UniProt Q61730 21-367, limits assumed).
T1 construct: also called mIL1RAP
T1 sequence (looked up): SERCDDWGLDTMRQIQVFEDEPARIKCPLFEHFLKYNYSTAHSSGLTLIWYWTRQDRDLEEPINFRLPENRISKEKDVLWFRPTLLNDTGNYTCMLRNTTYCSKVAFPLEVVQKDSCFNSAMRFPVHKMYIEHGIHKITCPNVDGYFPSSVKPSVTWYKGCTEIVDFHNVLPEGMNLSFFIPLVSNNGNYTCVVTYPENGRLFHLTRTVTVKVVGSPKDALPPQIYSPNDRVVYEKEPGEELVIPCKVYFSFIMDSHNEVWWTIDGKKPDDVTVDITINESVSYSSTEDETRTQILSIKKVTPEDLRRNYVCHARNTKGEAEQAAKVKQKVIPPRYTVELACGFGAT
Kind of test: ELISA on coated IL1RAP orthologs.

The target of the next test is T2, 大鼠IL1RAP (褐家鼠 (Rattus norvegicus), UniProt Q63621 21-367, limits assumed).
T2 construct: also called rnIL1RAP
T2 sequence (looked up): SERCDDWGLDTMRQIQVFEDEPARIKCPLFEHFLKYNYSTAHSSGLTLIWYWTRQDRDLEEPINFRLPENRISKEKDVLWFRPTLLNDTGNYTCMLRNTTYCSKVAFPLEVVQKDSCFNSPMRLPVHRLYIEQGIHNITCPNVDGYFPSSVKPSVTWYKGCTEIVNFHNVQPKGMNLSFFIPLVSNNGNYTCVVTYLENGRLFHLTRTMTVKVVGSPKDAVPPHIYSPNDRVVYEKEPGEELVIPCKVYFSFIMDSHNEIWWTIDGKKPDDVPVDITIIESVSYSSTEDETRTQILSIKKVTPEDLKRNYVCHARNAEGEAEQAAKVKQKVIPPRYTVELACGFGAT
As to the kind of experiment: ELISA on coated IL1RAP orthologs. In general terms: In an ELISA, binding on a coated surface is turned into a signal by an enzyme label.

Test [1] concerns the target T3, 重组mfIL1RAP aa21-367 (食蟹猴 (Macaca fascicularis), UniProt A0A2K5X5J5 21-367).
T3 construct: also called 食蟹猴(cyno)IL1RAP
T3 sequence: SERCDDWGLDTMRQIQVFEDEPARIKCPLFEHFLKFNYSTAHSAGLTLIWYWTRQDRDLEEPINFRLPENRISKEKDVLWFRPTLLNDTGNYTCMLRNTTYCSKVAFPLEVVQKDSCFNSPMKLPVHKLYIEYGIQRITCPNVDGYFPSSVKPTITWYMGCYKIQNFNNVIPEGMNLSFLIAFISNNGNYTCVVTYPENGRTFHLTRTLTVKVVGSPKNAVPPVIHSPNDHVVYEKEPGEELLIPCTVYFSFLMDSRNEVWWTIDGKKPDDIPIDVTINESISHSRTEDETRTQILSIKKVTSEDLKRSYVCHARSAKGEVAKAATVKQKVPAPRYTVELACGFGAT
Kind of test: binding ELISA, coated mfIL1RAP aa21-367.

In a further test the target is T4, 细胞膜上的人IL1RAP (人, UniProt Q9NPH3 21-570).
T4 sequence (looked up): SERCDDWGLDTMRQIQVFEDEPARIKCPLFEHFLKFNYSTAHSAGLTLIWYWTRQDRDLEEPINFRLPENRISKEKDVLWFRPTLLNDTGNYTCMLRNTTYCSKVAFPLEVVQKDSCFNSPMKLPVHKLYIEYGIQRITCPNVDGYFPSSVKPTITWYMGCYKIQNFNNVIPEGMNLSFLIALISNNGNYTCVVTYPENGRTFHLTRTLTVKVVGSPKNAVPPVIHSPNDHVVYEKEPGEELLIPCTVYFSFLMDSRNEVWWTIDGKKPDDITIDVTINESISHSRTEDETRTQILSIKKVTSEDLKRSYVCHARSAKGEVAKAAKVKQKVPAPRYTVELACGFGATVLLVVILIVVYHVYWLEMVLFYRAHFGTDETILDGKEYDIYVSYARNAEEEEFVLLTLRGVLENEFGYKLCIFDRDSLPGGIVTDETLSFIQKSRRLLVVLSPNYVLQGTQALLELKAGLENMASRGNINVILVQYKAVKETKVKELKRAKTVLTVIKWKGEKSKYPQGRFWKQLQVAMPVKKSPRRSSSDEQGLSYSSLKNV
Kind of test: cell-based or functional assay.

Test [2] has as its target T3, 重组mfIL1RAP aa21-367. As to the kind of experiment: ELISA on coated IL1RAP orthologs.

B1: h48D2 VH5.GL:VL4 (antibody, human IgG1, kappa, L234A L235A, V domains shown)
VH: QEQLEESGGGLVKPGGTLSLTCTVSGPSLSHFDITWIRQPPGKGLEWIGTISPGVSTYYASWAKSRVTISVDTSLNTVSLKLSSVTAADTATYFCARGGVGSSWKAFDLWGPGTLVTISS
VL: ELVMTQSPSSVSASVGDRVTITCQASESISTALAWYQQKPGKAPKLLIYKASTLPSGVPSRFSGSGSGTDFTLTINSLQPEDFATYYCQQGFSSGNVHNAFGGGTKVEIKR
notes: also called 48D2变体VH5.GL:VL4; 人源化和去免疫化48D2变体VH5.GL:VL4
As to B1, the binding result with 小鼠IL1RAP and with 大鼠IL1RAP was “no binding” each time.

B2: h48D2 VH5:VL4 (antibody, human IgG1, kappa, L234A L235A, V domains shown)
VH: QEQLEESGGGLVKPGGTLSLTCTVSGPSLSHFDITWIRQAPGSGLEWIGTISPGVSTYYASWAKSRVTISVDTSLNTVSLKLSSVTAADTATYFCARGGVGSSWKAFDLWGPGTLVTISS
VL: ELVMTQSPSSVSASVGDRVTITCQASESISTALAWYQQKPGKAPKLLIYKASTLPSGVPSRFSGSGSGTDFTLTINSLQPEDFATYYCQQGFSSGNVHNAFGGGTKVEIKR
notes: also called 人源化48D2变体VH5:VL4
As for B2, in the test with 重组mfIL1RAP aa21-367 [1], the binding result is “binds”.

B3: h48D2 VH5:VL5 (antibody, human IgG1, kappa, L234A L235A)
heavy: not shown
light: APVLTQSPATLEASVGDRVTITCQASESISTALAWYQQKPGQPPKLLIYKASTLPSGVPSRFSGSGSGTEFTLTISDLESDDAATYYCQQGFSSGNVHNAFGGGTEVVVKRTVAAPSVFIFPPSDEQLKSGTASVVCLLNNFYPREAKVQWKVDNALQSGNSQESVTEQDSKDSTYSLSSTLTLSKADYEKHKVYACEVTHQGLSSPVTKSFNRGEC
B3: the binding result with 重组mfIL1RAP aa21-367 [1] is listed as “binds”.

B4: h48D2 VH5.GL:VL5.GL (antibody, human IgG1, kappa, L234A L235A)
heavy: not shown
light: DIQMTQSPSTLSASVGDRVTITCQASESISTALAWYQQKPGQPPKLLIYKASTLPSGVPSRFSGSGSGTEFTLTISDLESDDAATYYCQQGFSSGNVHNAFGGGTEVVVKRTVAAPSVFIFPPSDEQLKSGTASVVCLLNNFYPREAKVQWKVDNALQSGNSQESVTEQDSKDSTYSLSSTLTLSKADYEKHKVYACEVTHQGLSSPVTKSFNRGEC
notes: humanised and de-immunised variant
On to B4, for which the binding result with 小鼠IL1RAP and in the test with 大鼠IL1RAP was “no binding” in each case.

B5: 嵌合48D2 (antibody, V domains shown)
VH: QEQLEESGGGLVKPGGSLTLTCTVSGPSLSHFDITWVRQAPGSGLEWIGTISPGVSTYYASWAKSRSTITSNTNLNTVTLKMTSLTAADTATYFCARGGVGSSWKAFDLWGPGTLVTISS
VL: APVLTQTPASVEVAVGGTVTIKCQASESISTALAWYQQKPGQPPKLLIYKASTLPSGVSSRFKGSGSGTEFALTISDLECDDAATYYCQQGFSSGNVHNAFGGGTEVVVK
notes: chimeric rabbit/human IgG1; also called ch48D2; 48D2嵌合(ch)兔/人抗人IL1RAP
For the molecule B5, in the test with 细胞膜上的人IL1RAP, the “IC50, inhibition of IL-1α signalling, HEK-Blue assay (SEAP, OD 620nM)” value was determined as 1920 pM; the “IC50, inhibition of IL-1β signalling, HEK-Blue assay (SEAP, OD 620nM)” value was 700 pM; the “IC50, inhibition of IL-33 signalling, HEK-Blue assay (SEAP, OD 620nM)” value was 2920 pM; the “IC50, inhibition of IL-36α signalling, HEK-Blue assay (SEAP, OD 620nM)” value turned out to be 8.3 pM. Also, in the test with 细胞膜上的人IL1RAP, the “IC50, inhibition of IL-36β signalling, HEK-Blue assay (SEAP, OD 620nM)” value amounted to 8.1 pM and the “IC50, inhibition of IL-36γ signalling, HEK-Blue assay (SEAP, OD 620nM)” value was determined as 11.1 pM. Moreover, in the test with 重组mfIL1RAP aa21-367 [2], the binding result is given as “binds”. Also, the binding result with 小鼠IL1RAP is listed as “no binding (tested: 4000ng/ml)”. Also, the binding result with 大鼠IL1RAP was “no binding (tested: 4000ng/ml)”.
